Results reported in patent publication US20150111836, “CELLULAR APOBEC3 PROTEINS AND MODULATORS THEREOF FOR REGULATING DNA REPAIR PROCESSES AND TREATING PROLIFERATIVE DISEASES” (YISSUM RESEARCH DEVELOPMENT COMPANY OF THE HEBREW …, published 2015).

What was measured:
[1] = target: T1, APOBEC3G (A3G) (Homo sapiens, UniProt Q9HC16 SEQ:1-384); test: EMSA; 8 min RT; settings: tags: C-terminal Myc-His6, expressed in 293T cells; chain copies: monomer to multimer (stated)
Procedure: (§1) FIG. 2D. A3G end-dependent association with ssDNA was assessed by electro-mobility shift assay (EMSA). S₁₆₀ oligonucleotide ends (3′, 5′, 3′+5′) were annealed to short complementary oligonucleotides (30 nt) and then incubated with A3G or BSA for 8 min at room temperature (RT). Acrylamide gels were stained with SYBR gold nucleic acid stain.

[2] = target: T1, APOBEC3G (A3G); test: EMSA; either 3' or 5' ssDNA terminus required; 5' preference; settings: tags: C-terminal Myc-His6, expressed in 293T cells, chain copies: monomer to multimer (stated), 3' end 30 nt duplex
Procedure: as §1

[3] = target: T1, APOBEC3G (A3G); test: EMSA; 8 min 37 C; RPA pre-binding inhibits monomeric complex (FIG. 5C); settings: tags: C-terminal Myc-His6, expressed in 293T cells; chain copies: monomer to multimer (stated); label: 3' dATP-biotin (TdT)
Procedure: (§2) FIG. 3B. Electro-mobility shift assay (EMSA). The indicated proteins were incubated with biotinylated SC oligonucleotides (80 nt) for 8 min at 37° C. and resolved by native PAGE. Acrylamide gels were transferred to nylon membranes and probed by enhanced chemiluminescence.

[4] = target: APOBEC3G W285A (Homo sapiens, UniProt Q9HC16 SEQ:1-384); test: EMSA; binding similar to wild type; settings: tags: C-terminal His6, expressed in 293T cells; label: 3' dATP-biotin (TdT)
Procedure: as §2

T1 sequence (Q9HC16 whole entry): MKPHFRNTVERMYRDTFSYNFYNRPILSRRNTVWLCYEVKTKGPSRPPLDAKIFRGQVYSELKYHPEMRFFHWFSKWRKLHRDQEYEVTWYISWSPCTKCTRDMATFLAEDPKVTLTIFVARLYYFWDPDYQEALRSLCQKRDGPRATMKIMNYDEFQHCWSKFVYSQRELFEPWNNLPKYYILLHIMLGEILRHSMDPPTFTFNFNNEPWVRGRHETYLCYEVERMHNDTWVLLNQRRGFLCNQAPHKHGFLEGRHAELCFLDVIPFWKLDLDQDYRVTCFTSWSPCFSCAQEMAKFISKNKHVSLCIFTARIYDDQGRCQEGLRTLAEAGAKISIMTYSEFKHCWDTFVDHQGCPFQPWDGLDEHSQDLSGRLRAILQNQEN
APOBEC3G W285A, sequence (Q9HC16 whole entry W285A): as the sequence (Q9HC16 whole entry) above, with W285A counted along it

B1: S160 (ssDNA)
DNA: GGATTGGTTGGTTATTTGTTTAAGGAAGGAAGAAGGAAGGCCCAATAAGGGAAGGCCCAATAAGTGGGAAGGCCCAATAAGTGAATTAAATAAGTGATTGATAAATAAGTGATTGATAAGTTGATTAAATAGTTGGAAGTTATGTTTGGTAGATTGATGG
binding result [1]: binds

B2: S160 with 3' end double-stranded (mixed)
DNA 1: B1 DNA
DNA 2: CCATCAATCTACCAAACATAACTTCCATCA
binding result [2]: binds

B3: SC (ssDNA)
DNA: GGATTGGTTGGTTATTTGTTTAAGGAAGGTGGATTAAAGGCCCATAAGGTGATGGAAGTTATGTTTGGTAGATTGATGG
binding result [3]: binds | binding result [4]: binds
